Results taken from patent publication US8536121B2, “Methods and reagents for the diagnosis, prevention and treatment of insulin resistance using beta-arrestin2 and its up-regulators” (Shanghai Institutes for Biological Sciences, CAS, priority 2008, dated 2013).

Columns and labels:
Akt [1] = assay: Insulin-stimulated Akt phosphorylation in Hep3B hepatocytes treated with inhibitors (immunoblot); assay type: cell-based, human; conditions: 10 μM PP2 or 100 nM Wortmannin for 30 min, then 100 nM insulin
Procedure: (§1) FIG. 4A, Activation of PI3K by insulin in livers of βarr2-ko mice (n=6), βarr2-tg mice (n=6) and their wild type littermates (n=6). Mice were injected with either saline or insulin (1 U·kg^−1) for 10 min. PI3K were immuno-purified from liver extracts and PI3K activity were measured by ELISA. Data are presented as mean ±s.e.m. *P<0.05, **P<0.005, versus control. FIG. 4B, FIG. 4C, Activation of Akt and downstream targets by insulin in livers of βarr2-ko mice (n=6) (FIG. 4B), βarr2-tg mice (n=6) (FIG. 4C) and their wild type littermates (n=6). Liver protein extracts prepared as in A were used for immunoblot analysis of pAkt, pFoxol, and pGSK3. […] FIG. 4E, Src-dependent activation of Akt. Hep3B hepatocytes were treated with or without 10 μM Src inhibitor PP2 or 100 nM PI3K inhibitor Wortmanin for 30 min, and then stimulated by 100 nM insulin. Phosphorylation levels of Akt at serine/threonine or tyrosine (n=6) were shown. […]
(§2) After mouse is sacrificed, mouse tissues are quickly excised and frozen in liquid nitrogen. Tissue lysate is prepared and protein concentration is determined by Bradford method. […] For immunoblotting, protein bands, emitting infrared fluorescence through excitation of IRDye800CW conjugated secondary antibody, are obtained by Odyssey infrared imaging system, followed by using Scion Image software (Li-Cor Bioscience, Lincoln, Nebr., USA) to perform quantitative analysis. […]

[2] = tested on: wild type littermates and βarr2-ko mice; assay: Insulin tolerance tests (ITTs); assay type: in vivo, mouse; conditions: intraperitoneal 1 U·kg^−1 insulin
Procedure: (§3) For GTTs, mice are injected intraperitoneal with glucose after starvation for 6 hours. Blood glucose is measure at indicated time points. Mice are injected intraperitoneally under fed conditions for ITTs. Blood are collected and determined the glycemia using a glucometer (Roche Accu-chek). Serum insulin levels are measured using rat/mouse ELISA kit.

PI3K = PI3K activity (ELISA) in liver of mice injected with insulin; assay type: in vivo, mouse; conditions: insulin 1 U·kg^−1 for 10 min; wild type, βarr2-ko and βarr2-tg mice
Procedure: as §1, with “shown. FIG. 4F, Tyrosine phosphorylation of Akt induced by insulin in livers of βarr2-ko mice (n=6), βarr2-tg mice (n=6) and their wild type littermates (n=6). Akt immuno-purified from protein extracts made in FIG. 4B and FIG. 4C was subjected to immunoblot using antibodies against phosphorylated tyrosine. All mice were 8-weeks old fed with a regular diet. Data are presented as mean ±s.e.m. *P<0.05, **P<0.005, versus control.” for “shown.”

[3] = tested on: Akt/βarrestin2/Src complex; assay: Akt/βarrestin2/Src complex formation in liver of C57BL/6 mice injected with insulin (immunoprecipitation); assay type: in vivo, mouse; conditions: C57BL/6 mice livers, intraperitoneal insulin 1 U·kg^−1, time-dependent
Procedure: (§4) C57BL/6 mice (n=6) were injected with 1 U·kg^−1 insulin for the indicated times, and liver protein extracts were prepared for immunoprecipitation using anti-Akt antibodies. […] Liver protein extracts prepared as described in a were subjected to immunoprecipitation for IRβ. […] Liver protein extracts prepared from βarr2-ko (n=6), βarr2-tg (n=6), their wild type littermates (n=6) as described were subjected to immunoprecipitation for IRβ. Akt and Src associated with IRβ were detected on immunoblots. […] Hep3B hepatocytes overexpressing HA-βarrestin2 186-409 or βGal were subjected for immunoblot analysis of pAkt, pFoxol, and pGSK3. All mice were 8-weeks old fed with a regular diet.
as §2, with “method. For immunoprecipitation, add relevant antibodies to cell lysate, incubate at 4° C. overnight, add protein A or protein G agarose beads, incubate at 4° C. for 2 h.” for “method.”

Akt [4] = assay: Akt phosphorylation in liver of mice injected with insulin (immunoblot); assay type: in vivo, mouse
Procedure: as §1, §2

C57BL/6 mice = assay: Adenovirus encoding βarrestin2 mutants injected into C57BL/6 mice (blood glucose, GTTs, ITTs); assay type: in vivo, mouse; conditions: for insulin tolerance in ITTs: 1 U·kg^−1, 7 days after adenovirus injection; for glucose tolerance in GTTs: 1 g·kg^−1, 7 days after adenovirus injection; for blood glucose levels: adenovirus, all time points, vs control mice
Text: C57BL/6 mice were 8 -weeks old fed on regular diet (RD). Data are presented as mean ±s.e.m. *P<0.05, **P<0.005, versus control.
(§5) βarr1-ko and βarr2-ko mice are provided by Dr. Robert J. Lefkowitz (Duke University Medical Center, Durham, N.C.). βarr1-tg and βarr2-tg mice are generated as described (Shi, Y., et al., “Critical regulation of CD4+ T cell survival and autoimmunity by beta-arrestin 1,” Nature Immunol., 8, 817-24 (2007)). All other mice are from Shanghai Laboratory Animal Center, Chinese Academy of Sciences. Animal experiments are performed in accordance with the National Institutes of Heath Guide for the Care and Use of Laboratory Animals. Mice are fed with a regular diet (Formulab 5008, Labdiet 5053) or high-fat diet (55% fat calories) (Harlan-Teklad 93075) and have free access to water and diet. Adenovirus (7×10^9 viral particle/100 μl saline) is injected into the tail vein of db/db mice and C57BL/6 to specifically target the liver. Body weight and food intake are measured as described in: Netea, M. G., et al., “Deficiency of interleukin-18 in mice leads to hyperphagia, obesity and insulin resistance,” Nature Medicine, 12, 650-6 (2006).
as §3
The CsCl purified adenovirus are used as a saline solution (7×10^9 virus particles per […]) and injected through tail vein.

Akt [5] = assay: Co-immunoprecipitation of βarrestin2 truncation mutants with Akt in Hep3B hepatocytes; assay type: binding, human; conditions: HA-tagged mutant
Text: (§6) FIG. 5B, Interaction of Akt and Src in liver of wild type littermates but not βarr2-ko mice. Liver protein extracts from βarr2-ko mice (n=6) and their wild type littermates (n=6) were used for immunoprecipitation by anti-Akt or anti-Src antibodies. FIG. 5C, Enhanced interaction of Akt and Src in liver of βarr2-tg mice. Liver protein extracts from βarr2-tg mice (n=6) and their wild type littermates (n=6) were used for immunoprecipitation by anti-Akt or anti-Src antibodies. […] HA-βarrestin2 that co-immunoprecipitated from Hep3B hepatocytes overexpressing Akt or Src without or with HA-βarrestin2, HA-βarrestin2 1-185 was shown on immunoblots using anti-HA antibodies (n=3). […]
(§7) C57BL/6 mice (n=6) were injected with 1 U·kg^−1 insulin for the indicated times, and liver protein extracts were prepared for immunoprecipitation using anti-Akt antibodies. […] Akt and Src associated with IRβ were detected on immunoblots. […]
as §2

Akt [6] = assay: Insulin-stimulated pAkt, pFoxo1, pGSK3 in Hep3B hepatocytes overexpressing βarrestin2 mutants (immunoblot); assay type: cell-based, human; conditions: overexpressed in Hep3B hepatocytes, vs βGal
Text: FIG. 5B, Interaction of Akt and Src in liver of wild type littermates but not βarr2-ko mice. Liver protein extracts from βarr2-ko mice (n=6) and their wild type littermates (n=6) were used for immunoprecipitation by anti-Akt or anti-Src antibodies. FIG. 5C, Enhanced interaction of Akt and Src in liver of βarr2-tg mice. Liver protein extracts from βarr2-tg mice (n=6) and their wild type littermates (n=6) were used for immunoprecipitation by anti-Akt or anti-Src antibodies. […] HA-βarrestin2 that co-immunoprecipitated from Hep3B hepatocytes overexpressing Akt or Src without or with HA-βarrestin2, HA-βarrestin2 1-185 was shown on immunoblots using anti-HA antibodies (n=3). FIG. 5F, Hep3B hepatocytes overexpressing HA-βarrestin2 1-185 or βGal were subjected to immunoprecipitation using anti-Akt antibodies. Akt, Src in the immunopurified complex were shown on immunoblots (n=3). […] Hep3B hepatocytes overexpressing HA-βarrestin2 1-185 or βGal were stimulated by insulin and then subjected to immunoblot analysis of pAkt, pFoxol, and pGSK3. All mice were 8-weeks old fed with a regular diet.
as §4
(§8) After mouse is sacrificed, mouse tissues are quickly excised and frozen in liquid nitrogen. Tissue lysate is prepared and protein concentration is determined by Bradford method. For immunoprecipitation, add relevant antibodies to cell lysate, incubate at 4° C. overnight, add protein A or protein G agarose beads, incubate at 4° C. for 2 h. Proteins that bind protein A or protein G agarose beads are washed in SDS sample buffer and treated at 50° C. for 20 min followed by SDS-PAGE separation and through immunoblotting method to determine relevant proteins. For immunoblotting, protein bands, emitting infrared fluorescence through excitation of IRDye800CW conjugated secondary antibody, are obtained by Odyssey infrared imaging system, followed by using Scion Image software (Li-Cor Bioscience, Lincoln, Nebr., USA) to perform quantitative analysis. […]

Src = molecular target: T1, Src (Homo sapiens, UniProt P12931); assay: Co-immunoprecipitation of βarrestin2 truncation mutants with Src in Hep3B hepatocytes; assay type: binding; conditions: HA-tagged mutant
T1 construct: Full length of Akt and Src are cloned into modified pcDNA3 vector in-frame with HA or Flag at the N-terminus; expressed in transfected cells; host or cells: Hep3B
Text: as §6, §7, §2

db/db diabetic mice = assay: Adenovirus injection into db/db diabetic mice (blood glucose, GTTs, ITTs, body weight, food intake, liver βarrestin2); assay type: in vivo, mouse; conditions: adenovirus encoding mutant, vs βGal
Procedure: as §5
For GTTs, mice are injected intraperitoneal with glucose after starvation for 6 hours. Blood glucose is measure at indicated time points. Mice are injected intraperitoneally under fed conditions for ITTs. Blood are collected and determined the glycemia using a glucometer (Roche Accu-chek). Serum insulin levels are measured using rat/mouse ELISA kit. […]

Akt/Src complex = assay: Akt/Src interaction in Hep3B hepatocytes overexpressing βarrestin2 mutant (anti-Akt immunoprecipitation); assay type: cell-based, human; conditions: overexpressed in Hep3B hepatocytes, vs βGal
Text: as §6, with “(n=3). FIG. 5F, Hep3B hepatocytes overexpressing HA-βarrestin2 1-185 or βGal were subjected to immunoprecipitation using anti-Akt antibodies. Akt, Src in the immunopurified complex were shown on immunoblots (n=3).” for “(n=3).”
as §2

IRβ = molecular target: T2, IRβ (Homo sapiens, UniProt P06213); assay: Co-immunoprecipitation of βarrestin2 truncation mutants with IRβ in Hep3B hepatocytes; assay type: binding; conditions: HA-tagged mutant
T2 construct: IR immunoprecipitated from Hep3B hepatocytes; endogenous in cells; host or cells: Hep3B
Procedure: as §4
as §8, with “Proteins that bind protein A or protein G agarose beads are washed in SDS sample buffer and treated at 50° C. for 20 min followed by SDS-PAGE separation and through immunoblotting method to determine relevant proteins.” left out

Molecule	insulin tolerance in ITTs (C57BL/6 mice)	glucose tolerance in GTTs (C57BL/6 mice)	blood glucose levels (C57BL/6 mice)	interaction with Akt (Akt [5])	insulin-stimulated phosphorylation (activation) of Akt (Akt [6])	interaction with Src (Src)	insulin resistance (db/db diabetic mice)	other results
CC(C)(C)n1nc(-c2ccc(Cl)cc2)c2c(N)ncnc21 [PP2]	–	–	–	–	–	–	–	serine/threonine phosphorylation of Akt (Akt [1]): remarkably reduced; tyrosine phosphorylation of Akt (Akt [1]): remarkably reduced
insulin: insulin injected into mice or added to cells as stimulus	–	–	–	–	–	–	–	blood glucose in ITTs [2]: time-dependent reduction; increase in PI3K activity in liver (PI3K): ~3 fold; Akt/Src interactions [3]: marked increase; Akt/βarrestin2 association [3]: marked increase; increase in tyrosine phosphorylation of Akt (Akt [4]; liver of wild type mice, insulin stimulation): ~2 fold; increase in the phosphorylation of Akt at Thr308 or Ser473 in liver (Akt [4]; wild type mice, insulin 1 U·kg^−1 for 10 min): ~3 fold
βarrestin2 1-185: truncated form of βarrestin2 containing amino acids 1-185, dominant negative mutant; overexpressed in Hep3B or delivered by adenovirus (protein, left off: small tags and cut ends, overexpressed in Hep3B or delivered by adenovirus) MGEKPGTRVFKKSSPNCKLTVYLGKRDFVDHLDKVDPVDGVVLVDPDYLKDRKVFVTLTCAFRYGREDLDVLGLSFRKDLFIATYQAFPPVPNPPRPPTRLQDRLLRKLGQHAHPFFFTIPQNLPCSVTLQPGPEDTGKACGVDFEIRAFCAKSLEEKSHKRNSVRLVIRKVQFAPEKPGPQPSA	impair	impair	higher	not Akt	markedly reduced	interacts with Src	aggravates	insulin-stimulated phosphorylation of Foxo1 (Akt [6]): markedly reduced; insulin-stimulated phosphorylation of GSK3 (Akt [6]): markedly reduced; Akt/Src interactions (Akt/Src complex): inhibits
βarrestin2 186-409: truncated mutant of βarrestin2 that interacts with IR but not Akt or Src; overexpressed in Hep3B or delivered by adenovirus (protein, left off: small tags and cut ends, overexpressed in Hep3B or delivered by adenovirus) ETTRHFLMSDRSLHLEASLDKELYYHGEPLNVNVHVTNNSTKTVKKIKVSVRQYADICLFSTAQYKCPVAQLEQDDQVSPSSTFCKVYTITPLLSDNREKRGLALDGKLKHEDTNLASSTIVKEGANKEVLGILVSYRVKVKLVVSRGGDVSVELPFVLMHPKPHDHIPLPRPQSAAPETDVPVDTNLIEFDTNYATDDDIVFEDFARLRLKGMKDDDYDDQLC	impair	impair	higher	not Akt or Src	suppresses	not Akt or Src	aggravates	interaction with IRβ (IRβ): interacts with IRβ
